From patent US20030199438A1, “Method for identification of proteins from intracellular bacteria” (priority 2001, published 2003)
Entries after “also recorded” stand apart in the source; their conditions may differ.

Columns and labels:
host cell proteasome [1] = experiment: Pulse chase studies in combination with proteasome inhibitors (2D-PAGE); type: cell-based, C. trachomatis D infected cells; set-up: key to Affected by MG115 / Affected by MG132: +: turnover times is prolonged by treatment with different proteasome inhibitors during labelling and chase; conditions: for level on chased+MG132 gels compared to controls: labelled 22-24 h.p.i., chased 24-28 h.p.i. with MG132 (10-100 μM; 20 μM in FIG. 6); for turnover time upon addition of proteasome inhibitors: proteasome inhibitors added during the chase period; for Affected by MG115 / Affected by MG132: turnover time of C. trachomatis D protein, inhibitor during labelling and chase
Method: (§1) To label chlamydial proteins for two hour periods, infected cell cultures were incubated in a medium containing RPMI 1640, […] gentamycin, 40 μg/ml cycloheximide, 100 μCi/ml [35S]-methionine/cysteine (Promix, Amersham Pharmacia Biotech, Uppsala, Sweden) as described previously (Shaw et al., 1999,2000) [18.] [19.]. After labelling the labelling medium was changed to normal growth medium following two washes in normal growth medium and the infected cells were harvested at different points in time after labelling. Similarly, labelled EB proteins were obtained by allowing the Chlamydia to grow until 72 h.p.i. after the two hour labelling periods. The labelled EB were then harvested and purified using two consecutive steps of density gradient ultracentrifugation essentially as described for C. trachomatis in (Schacter and Wyrick, 1994) [22.]and for C. pneumoniae (Knudsen et al. 1999 [17.]). Proteins in the EB preparation and pulse chase preparation were labelled at the same intervals as proteins from the whole cell lysate preparation to facilitate correct 2D-PAGE protein profile comparison.
Cell permeable proteasome inhibitors are added to the infected cell cultures during the labelling and chase period and the turnover time of proteins compared to that observed for labelling/chase without proteasome inhibitors added. Proteins were labelled in the presence or absence of 10-100 μM of the proteasome inhibitor MG-132 from 22-24 h.p.i. The labelling medium was then replaced with growth medium with or without MG132 after two washes in normal growth medium and chased from 24 h.p.i. to 28 h.p.i. Cell lysates were run on 2D-PAGE(IPG) and compared to controls without MG-132. and to gels with proteins harvested immediately after labelling (FIGS. 6A, B and C).
The invention includes the use of several other proteasome inhibitors (e.g. MG115, MG262, PSI and lactocystein), which inhibit different parts of the catalytic activity of the proteasome, which may elucidate other proteins that are degraded in the proteasome (Table IV).

[2] = test system: C. trachomatis D infected cell cultures; experiment: Pulse chase studies of candidates for secreted proteins (2D-PAGE); type: cell-based
Method: as §1
In order to estimate the time in which the identified candidate proteins could be present inside infected cells, the invention provides a series of pulse chase studies. In the following examples infected cell cultures were [35S]-labelled from 22-24 hours. After the labelling period the medium was changed to normal RPMI growth medium without [35S]-methionine and cells were harvested at different times after labelling.

host cell proteasome [3] = experiment: Immunoblotting with PAb255 against CT610 of MG132 treated infected cells; type: cell-based, C. trachomatis D infected cells; conditions: for abundance on 2D-gel immunoblot with PAb255 after MG132 treatment: MG132 for 6 hours prior to harvesting at 30 h.p.i.
Method: In order to confirm that the PAbs recognized the correct vaccine candidates and to visualize potential post translational modifications or processing, 2D-PAGE immunoblotting were performed. 500 μg unlabelled and 2×10^6 cpm labelled C. trachomatis D or C. pneumoniae protein from whole cell lysates was separated by 2D-PAGE, and proteins were electroblotted on to PVDF membranes. Immunostaining was carried out using a 1/5001/1000 dilution of the PAbs in a buffer containing 150 mM NaCl (or in high salt, 400 mM), 20 mM Tris, 0.2% w/v gelatin, 0.05% v/v Tween 20 (Bio-Rad) and 2% v/v normal goat serum (Dako, Glostrup Denmark).
The secondary antibody used was alkaline phosphatase-conjugated goat anti-rabbit IgG (Bio-Rad) diluted 1/2000 in antibody buffer. Blots were stained with 5-bromo-4-chloro-3-indolylphosphate toluidium (BCIP)/nitroblue tetrazolium (NBT) (Bio-Rad) until a clear reaction was detected. Immunoblots were computer scanned and subsequently exposed to X-ray films for approximately 8 days. Melanie II Software was used in order to compare immunostained proteins with their [35S]-labelled counterparts.
DT7 was identified as CT610 and was located just above DT9, DT10, DT11 and DT12 (FIG. 6A). IMB with PAb255 against CT610 on 2D-gel blots (FIG. 7C1) of whole cell lysates clearly reacted with two rows of spots, one row representing DT7 and the other row representing DT9, DT10, DT11 and DT12. CT610 is therefore present in different isoforms presumably due to different posttranslational modification and processing.
IMB with PAb255 was performed on ordinary SDS-PAGE PVDF blots with protein from whole cell lysates treated for six hours in the presence or absence of MG132, respectively.

| Molecule | level on chased+MG132 gels compared to controls (host cell proteasome [1]) | turnover time upon addition of proteasome inhibitors (host cell proteasome [1]) | Affected by MG115 (host cell proteasome [1]) | Affected by MG132 (host cell proteasome [1]) | turnover time in pulse chase studies [2] | abundance on 2D-gel immunoblot with PAb255 after MG132 treatment (host cell proteasome [3]) | abundance on 2D-gel immunoblot with PAb255 after MG132 treatment (host cell proteasome [3]; listed as DT111) | level of band on SDS-PAGE immunoblot with PAb255, MG132 treated vs untreated (host cell proteasome [3]; six hours with or without MG132 (50 μM), harvested 30 h.p.i.) | turnover time (time present after synthesis) ([2]; labelled 22-24 h.p.i., chased) [h] |
| --- | --- | --- | --- | --- | --- | --- | --- | --- | --- |
| DT9: C. trachomatis D protein spot identified as CT610 (lower row) (protein) MNFLDQLDLIIQNKHMLEHTFYVKWSKGELTKEQLQAYAKDYYLHIKAFPKYLSAIHSRCDDLEARKLLLDNLMDEENGYPNHIDLWKQFVFALGVTPEELEAHEPSEAAKAKVATFMRWCTGDSLAAGVAALYSYESQIPRIAREKIRGLTEYFGFSNPEDYAYFTEHEEADVRHAREEKALIEMLLKDDADKVLEASQEVTQSLYGFLDSFLDPGTCCSCHQSY | significantly greater; also recorded: higher; also recorded: significantly increased | prolonged | + | + | short | clear relative increase; also recorded: clearly increased | – | – | – |
| DT10: C. trachomatis D protein spot identified as CT610 (lower row) (protein) MNFLDQLDLIIQNKHMLEHTFYVKWSKGELTKEQLQAYAKDYYLHIKAFPKYLSAIHSRCDDLEARKLLLDNLMDEENGYPNHIDLWKQFVFALGVTPEELEAHEPSEAAKAKVATFMRWCTGDSLAAGVAALYSYESQIPRIAREKIRGLTEYFGFSNPEDYAYFTEHEEADVRHAREEKALIEMLLKDDADKVLEASQEVTQSLYGFLDSFLDPGTCCSCHQSY | significantly greater; also recorded: higher; also recorded: significantly increased | prolonged | + | + | short | clear relative increase; also recorded: clearly increased | – | – | – |
| DT11: C. trachomatis D protein spot identified as CT610 (lower row) (protein) MNFLDQLDLIIQNKHMLEHTFYVKWSKGELTKEQLQAYAKDYYLHIKAFPKYLSAIHSRCDDLEARKLLLDNLMDEENGYPNHIDLWKQFVFALGVTPEELEAHEPSEAAKAKVATFMRWCTGDSLAAGVAALYSYESQIPRIAREKIRGLTEYFGFSNPEDYAYFTEHEEADVRHAREEKALIEMLLKDDADKVLEASQEVTQSLYGFLDSFLDPGTCCSCHQSY | significantly greater; also recorded: higher; also recorded: significantly increased | prolonged | + | + | short | clearly increased | clear relative increase | – | – |
| DT7: C. trachomatis D protein spot identified as CT610 (upper row) (protein) MNFLDQLDLIIQNKHMLEHTFYVKWSKGELTKEQLQAYAKDYYLHIKAFPKYLSAIHSRCDDLEARKLLLDNLMDEENGYPNHIDLWKQFVFALGVTPEELEAHEPSEAAKAKVATFMRWCTGDSLAAGVAALYSYESQIPRIAREKIRGLTEYFGFSNPEDYAYFTEHEEADVRHAREEKALIEMLLKDDADKVLEASQEVTQSLYGFLDSFLDPGTCCSCHQSY | not significantly affected | – | – | – | short | – | – | not significantly altered | – |
| DT8: novel 7.2 kDa C. trachomatis specific protein, SEQ ID NO:1, not annotated in genome (protein, listed as Chlamydia trachomatis) MQHTIMLSLENDNDKLASMMDRVVAASSSILSASKDSESNRQFTISKAPDKEAPCRVSYVAASALSE | – | – | – | – | short | – | – | – | < 6 |
| DT48: C. trachomatis D protein spot, N-terminal fragment of CT858 (protein) IHSPVQGESLVCKNALQDLSFLEHLLQVKYAPKTWKEQYLGWDLVQSSVSAQQKLRTQENPSTSFCQQVLADFIGGLNDFHAGVTFFAIESAYLPYTVQKSSDGRFYFVDIMTFSSEIRVGDELLEVDGAPVQDVLATLYGSNHKGTAAEESAALRTLFSRMASLGHKVPSGRTTLKIRRPFGTTREVRVKWRYVPEGVGDLATIAPSIRAPQLQKSM | – | – | – | – | long | – | – | – | – |
| DT4: C. trachomatis D protein spot, C-terminal fragment of CT858 (protein) GYNIGSTDGFLPVIGPVIWESEGLFRAYISSVTDGDGKSHKVGFLRIPTYSWQDMEDFDPSGPPPWEEFAKIIQVFSSNTEALIIDQTNNPGGSVLYLYALLSMLTDRPLELPKHRMILTQDEVVDALDWLTLLENVDTNVESRLALGDNMEGYTVDLQVAEYLKSFGRQVLNCWSKGDIELSTPIPLFGFEKIHPHPRVQYSKPICVLINEQDFSCADFFPVVLKDNDRALIVGTRTAGAGGFVFNVQFPNRTGIKTCSLTGSLAVREHGAFIENIGVEPHIDLPFTANDIRYKGYSEYLDKVKKLVCQLINNDGTIILAEDGSF | – | – | – | – | long | – | – | – | – |
| CT858: C. trachomatis 67 kDa protein, fragments DT4 (C-terminal) and DT48 (N-terminal) (protein) MKMNRIWLLLLTFSSAIHSPVQGESLVCKNALQDLSFLEHLLQVKYAPKTWKEQYLGWDLVQSSVSAQQKLRTQENPSTSFCQQVLADFIGGLNDFHAGVTFFAIESAYLPYTVQKSSDGRFYFVDIMTFSSEIRVGDELLEVDGAPVQDVLATLYGSNHKGTAAEESAALRTLFSRMASLGHKVPSGRTTLKIRRPFGTTREVRVKWRYVPEGVGDLATIAPSIRAPQLQKSMRSFFPKKDDAFHRSSSLFYSPMVPHFWAELRNHYATSGLKSGYNIGSTDGFLPVIGPVIWESEGLFRAYISSVTDGDGKSHKVGFLRIPTYSWQDMEDFDPSGPPPWEEFAKIIQVFSSNTEALIIDQTNNPGGSVLYLYALLSMLTDRPLELPKHRMILTQDEVVDALDWLTLLENVDTNVESRLALGDNMEGYTVDLQVAEYLKSFGRQVLNCWSKGDIELSTPIPLFGFEKIHPHPRVQYSKPICVLINEQDFSCADFFPVVLKDNDRALIVGTRTAGAGGFVFNVQFPNRTGIKTCSLTGSLAVREHGAFIENIGVEPHIDLPFTANDIRYKGYSEYLDKVKKLVCQLINNDGTIILAEDGSF | – | – | – | – | long | – | – | – | – |
